According to article doi:10.1101/2021.03.03.433722:

Target: MvaT F36D/M44D (P. aeruginosa) (UniProt Q9HW86)
Assay: ITC

Substance | Kd | stoichiometry N
gp4 K42E/K45E (natural protein) | 1.36 µM | 0.52
gp4 of Pseudomonas phage LUZ24 (natural protein) | 0.17 µM | 0.56
